Data as given in patent US20050221287A1 (CONSEJO SUPERIOR DE INVESTIGACIONES CIENTIFICAS PHARMACIA …, published 2005).

Assays:
STAT2 = STAT2 (human, UniProt P52630 1-851); assay: association with CXCR4 in CXCL12-stimulated IM-9 cells
JAK1 = target: T1, JAK1 (human, UniProt P23458 1-1154); assay: as above
T1 construct: Endogenous protein of IM-9 cell lysates

STAT3 = STAT3 (human, UniProt P40763 2-770, limits assumed); assay: as above
STAT1 = target: T2, STAT1 (human, UniProt P42224 2-750, limits assumed); assay: as above
T2 sequence (looked up): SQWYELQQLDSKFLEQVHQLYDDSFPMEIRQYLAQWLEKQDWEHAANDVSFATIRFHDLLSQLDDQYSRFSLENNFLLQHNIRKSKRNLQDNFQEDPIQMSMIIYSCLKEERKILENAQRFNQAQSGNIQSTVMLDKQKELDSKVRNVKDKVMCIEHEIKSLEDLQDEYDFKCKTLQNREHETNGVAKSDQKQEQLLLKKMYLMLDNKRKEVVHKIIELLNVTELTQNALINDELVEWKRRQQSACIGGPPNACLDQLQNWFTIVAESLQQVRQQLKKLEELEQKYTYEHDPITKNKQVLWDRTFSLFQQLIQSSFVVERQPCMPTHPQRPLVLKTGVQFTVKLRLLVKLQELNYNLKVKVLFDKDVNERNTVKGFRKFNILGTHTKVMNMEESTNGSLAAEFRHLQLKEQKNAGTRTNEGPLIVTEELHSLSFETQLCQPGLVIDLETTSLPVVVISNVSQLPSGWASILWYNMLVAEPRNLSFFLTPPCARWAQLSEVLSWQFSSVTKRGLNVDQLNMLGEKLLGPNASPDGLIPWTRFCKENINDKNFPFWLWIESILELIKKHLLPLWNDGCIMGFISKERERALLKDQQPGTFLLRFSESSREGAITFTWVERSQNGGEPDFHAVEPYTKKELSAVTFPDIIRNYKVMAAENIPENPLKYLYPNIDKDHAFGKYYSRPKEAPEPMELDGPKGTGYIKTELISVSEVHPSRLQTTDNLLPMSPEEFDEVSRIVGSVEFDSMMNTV

STAT4 = target: T3, STAT4 (human, UniProt Q14765 1-748); assay: association with CXCR4 in CXCL12-stimulated IM-9 cells (data not shown)
T3 sequence (looked up): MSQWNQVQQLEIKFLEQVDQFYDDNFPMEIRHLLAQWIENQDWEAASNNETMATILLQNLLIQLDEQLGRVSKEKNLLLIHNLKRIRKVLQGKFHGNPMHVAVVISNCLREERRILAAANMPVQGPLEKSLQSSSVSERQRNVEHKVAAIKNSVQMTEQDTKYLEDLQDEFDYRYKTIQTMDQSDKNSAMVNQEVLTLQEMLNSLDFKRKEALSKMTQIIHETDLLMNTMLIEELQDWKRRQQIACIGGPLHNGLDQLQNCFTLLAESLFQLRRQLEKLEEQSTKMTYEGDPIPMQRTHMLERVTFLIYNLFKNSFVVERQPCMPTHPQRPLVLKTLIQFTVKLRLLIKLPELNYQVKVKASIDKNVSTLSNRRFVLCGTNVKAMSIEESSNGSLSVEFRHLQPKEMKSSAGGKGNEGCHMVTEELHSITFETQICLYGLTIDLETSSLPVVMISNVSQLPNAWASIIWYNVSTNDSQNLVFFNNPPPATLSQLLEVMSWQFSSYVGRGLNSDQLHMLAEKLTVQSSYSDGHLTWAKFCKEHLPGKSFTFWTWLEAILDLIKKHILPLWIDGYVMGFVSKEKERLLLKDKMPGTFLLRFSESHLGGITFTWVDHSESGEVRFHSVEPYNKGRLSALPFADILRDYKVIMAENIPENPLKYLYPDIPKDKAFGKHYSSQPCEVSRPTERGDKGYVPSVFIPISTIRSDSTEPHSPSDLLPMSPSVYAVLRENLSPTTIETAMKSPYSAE

STAT6 = target: T4, STAT6 (human, UniProt P42226 2-847); assay: as above
T4 sequence (looked up): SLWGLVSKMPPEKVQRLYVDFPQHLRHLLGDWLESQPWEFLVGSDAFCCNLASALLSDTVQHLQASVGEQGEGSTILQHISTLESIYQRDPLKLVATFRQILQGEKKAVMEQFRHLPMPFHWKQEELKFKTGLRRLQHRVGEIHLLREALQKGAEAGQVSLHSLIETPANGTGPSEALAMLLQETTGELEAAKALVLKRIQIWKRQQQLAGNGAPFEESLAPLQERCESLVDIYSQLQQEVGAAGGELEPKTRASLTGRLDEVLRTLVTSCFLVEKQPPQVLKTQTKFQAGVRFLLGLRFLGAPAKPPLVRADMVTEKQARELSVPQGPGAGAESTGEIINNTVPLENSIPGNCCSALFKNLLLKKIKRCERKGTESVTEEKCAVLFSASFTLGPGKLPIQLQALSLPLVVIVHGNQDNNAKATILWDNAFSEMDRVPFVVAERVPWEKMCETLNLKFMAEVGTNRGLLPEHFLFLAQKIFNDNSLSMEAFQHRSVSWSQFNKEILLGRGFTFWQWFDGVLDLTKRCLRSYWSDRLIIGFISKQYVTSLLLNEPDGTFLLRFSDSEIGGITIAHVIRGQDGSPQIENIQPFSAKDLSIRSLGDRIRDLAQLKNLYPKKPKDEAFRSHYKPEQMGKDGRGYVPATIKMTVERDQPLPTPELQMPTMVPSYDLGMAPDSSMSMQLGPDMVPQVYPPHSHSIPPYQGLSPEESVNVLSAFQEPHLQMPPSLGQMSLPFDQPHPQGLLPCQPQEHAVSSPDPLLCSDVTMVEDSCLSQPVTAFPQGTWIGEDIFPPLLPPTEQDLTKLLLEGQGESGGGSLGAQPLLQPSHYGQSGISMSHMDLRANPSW

Sequence of STAT3 (P40763 2-770 limits assumed): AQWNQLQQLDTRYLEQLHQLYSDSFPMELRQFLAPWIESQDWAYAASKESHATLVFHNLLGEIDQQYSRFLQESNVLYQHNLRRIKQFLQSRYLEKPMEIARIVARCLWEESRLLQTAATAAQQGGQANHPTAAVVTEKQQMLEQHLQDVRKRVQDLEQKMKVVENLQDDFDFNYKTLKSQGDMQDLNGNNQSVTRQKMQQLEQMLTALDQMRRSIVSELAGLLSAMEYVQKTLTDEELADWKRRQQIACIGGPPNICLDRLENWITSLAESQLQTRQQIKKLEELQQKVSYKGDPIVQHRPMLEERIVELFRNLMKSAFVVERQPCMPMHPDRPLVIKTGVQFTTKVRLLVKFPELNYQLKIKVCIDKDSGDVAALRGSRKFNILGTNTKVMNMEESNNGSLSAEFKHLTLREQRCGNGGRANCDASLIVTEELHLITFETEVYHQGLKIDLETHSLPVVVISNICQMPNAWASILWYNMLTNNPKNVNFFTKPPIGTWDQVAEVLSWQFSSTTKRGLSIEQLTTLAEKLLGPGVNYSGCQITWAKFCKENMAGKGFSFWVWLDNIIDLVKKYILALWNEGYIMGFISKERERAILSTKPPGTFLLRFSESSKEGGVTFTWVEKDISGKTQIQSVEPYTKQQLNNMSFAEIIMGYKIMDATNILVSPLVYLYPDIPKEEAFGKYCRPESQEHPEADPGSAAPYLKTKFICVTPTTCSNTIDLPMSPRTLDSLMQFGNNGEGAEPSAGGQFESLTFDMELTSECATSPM
Sequence of STAT2 (P52630 whole entry): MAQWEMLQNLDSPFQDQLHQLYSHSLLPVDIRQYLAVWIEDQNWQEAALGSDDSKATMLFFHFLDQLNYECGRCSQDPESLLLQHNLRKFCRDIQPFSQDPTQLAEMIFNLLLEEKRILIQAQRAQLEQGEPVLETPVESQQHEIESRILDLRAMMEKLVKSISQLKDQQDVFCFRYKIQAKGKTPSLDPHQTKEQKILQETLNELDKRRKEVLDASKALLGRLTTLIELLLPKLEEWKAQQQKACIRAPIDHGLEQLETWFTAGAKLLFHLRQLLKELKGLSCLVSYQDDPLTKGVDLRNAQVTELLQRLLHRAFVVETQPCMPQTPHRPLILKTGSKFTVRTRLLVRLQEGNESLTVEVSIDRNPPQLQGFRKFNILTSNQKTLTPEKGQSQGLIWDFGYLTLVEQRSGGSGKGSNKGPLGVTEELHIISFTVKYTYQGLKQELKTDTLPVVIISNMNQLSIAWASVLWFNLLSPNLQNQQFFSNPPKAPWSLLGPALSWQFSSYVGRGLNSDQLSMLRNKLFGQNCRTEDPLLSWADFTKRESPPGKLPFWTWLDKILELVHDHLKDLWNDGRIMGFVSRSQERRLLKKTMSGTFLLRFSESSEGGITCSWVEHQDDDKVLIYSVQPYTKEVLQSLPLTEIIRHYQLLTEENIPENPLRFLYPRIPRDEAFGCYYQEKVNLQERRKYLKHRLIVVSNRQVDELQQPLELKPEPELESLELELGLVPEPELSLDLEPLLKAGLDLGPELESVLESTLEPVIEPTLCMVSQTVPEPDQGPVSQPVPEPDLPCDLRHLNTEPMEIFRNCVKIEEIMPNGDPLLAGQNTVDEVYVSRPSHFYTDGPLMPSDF
T1 sequence (P23458 whole entry): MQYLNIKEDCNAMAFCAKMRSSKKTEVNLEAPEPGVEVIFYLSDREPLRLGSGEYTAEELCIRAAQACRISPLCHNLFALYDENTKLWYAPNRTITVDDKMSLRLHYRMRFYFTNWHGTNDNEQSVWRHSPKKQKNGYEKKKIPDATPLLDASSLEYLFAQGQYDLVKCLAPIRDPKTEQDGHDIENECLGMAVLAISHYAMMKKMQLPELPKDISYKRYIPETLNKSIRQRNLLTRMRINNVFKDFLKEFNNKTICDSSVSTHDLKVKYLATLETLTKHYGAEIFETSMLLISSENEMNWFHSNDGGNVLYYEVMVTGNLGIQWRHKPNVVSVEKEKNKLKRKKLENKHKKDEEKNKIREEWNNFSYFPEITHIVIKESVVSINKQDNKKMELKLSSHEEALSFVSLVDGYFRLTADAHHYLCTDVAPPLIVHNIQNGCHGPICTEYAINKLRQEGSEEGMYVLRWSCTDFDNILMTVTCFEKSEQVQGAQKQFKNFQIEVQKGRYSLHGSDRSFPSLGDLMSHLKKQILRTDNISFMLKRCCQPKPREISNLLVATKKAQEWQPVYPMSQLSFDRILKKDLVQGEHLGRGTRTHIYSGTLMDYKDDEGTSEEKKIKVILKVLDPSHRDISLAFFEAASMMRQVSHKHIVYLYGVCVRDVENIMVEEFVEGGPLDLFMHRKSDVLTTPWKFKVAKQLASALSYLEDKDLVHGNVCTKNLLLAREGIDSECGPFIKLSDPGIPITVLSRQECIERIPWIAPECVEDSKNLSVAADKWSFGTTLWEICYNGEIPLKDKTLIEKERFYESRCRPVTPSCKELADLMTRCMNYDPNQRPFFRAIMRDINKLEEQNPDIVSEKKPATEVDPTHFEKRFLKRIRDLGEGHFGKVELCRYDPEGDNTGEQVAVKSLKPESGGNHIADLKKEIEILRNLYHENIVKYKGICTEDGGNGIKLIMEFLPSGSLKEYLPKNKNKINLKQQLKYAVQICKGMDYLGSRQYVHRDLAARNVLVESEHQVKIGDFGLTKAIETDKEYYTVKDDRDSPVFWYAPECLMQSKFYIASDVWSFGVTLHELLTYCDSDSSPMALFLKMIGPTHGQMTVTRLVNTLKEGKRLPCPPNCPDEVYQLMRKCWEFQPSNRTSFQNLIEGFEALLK

B1: CXCR4 (receptor, human, UniProt P61073 1-352, looked up)
chain: MEGISIYTSDNYTEEMGSGDYDSMKEPCFREENANFNKIFLPTIYSIIFLTGIVGNGLVILVMGYQKKLRSMTDKYRLHLSVADLLFVITLPFWAVDAVANWYFGNFLCKAVHVIYTVNLYSSVLILAFISLDRYLAIVHATNSQRPRKLLAEKVVYVGVWIPALLLTIPDFIFANVSEADDRYICDRFYPNDLWVVVFQFQHIMVGLILPGIVILSCYCIIISKLSHSKGHQKRKALKTTVILILAFFACWLPYYIGISIDSFILLEIIKQGCEFENTVHKWISITEALAFFHCCLNPILYAFLGAKFKTSAQHALTSVSRGSSLKILSKGKRGGHSSVSTESESSSFHSS
notes: whole, on cells; Endogenous receptor of IM-9 cells: on the cell surface in flow cytometry, immunoprecipitated from digitonin lysates in the co-immunoprecipitations; also called CXCR4 receptor; the CXCR4
B1: binds (STAT2); binds (JAK1); binds (STAT3). B1: binds (STAT1); no binding (STAT4); no binding (STAT6).
